# B1: PD1/LAG3 0927 (bispecific antibody, human IgG1, kappa, L234A L235A)
# heavy 1: not shown
# heavy 2: EVQLLESGGGLVQPGGSLRLSCAASGFIFDDYTMNWVRQAPGKGLEWVAVISWDGGGTYYTDSVKGRFTISRDDFKNTLYLQMNSLRAEDTAVYYCAKGLTDTTLYGSDYWGQGTLVTVSSASTKGPSVFPLAPSSKSTSGGTAALGCLVEDYFPEPVTVSWNSGALTSGVHTFPAVLQSSGLYSLSSVVTVPSSSLGTQTYICNVNHKPSNTKVDEKVEPKSCDKTHTCPPCPAPEAAGGPSVFLFPPKPKDTLMISRTPEVTCVVVDVSHEDPEVKFNWYVDGVEVHNAKTKPREEQYNSTYRVVSVLTVLHQDWLNGKEYKCKVSNKALGAPIEKTISKAKGQPREPQVCTLPPSRDELTKNQVSLSCAVKGFYPSDIAVEWESNGQPENNYKTTPPVLDSDGSFFLVSKLTVDKSRWQQGNVFSCSVMHEALHNHYTQKSLSLSPGK
# light 1: EVQLLESGGGLVQPGGSLRLSCAASGFSFSSYTMSWVRQAPGKGLEWVATISGGGRDIYYPDSVKGRFTISRDNSKNTLYLQMNSLRAEDTAVYYCVLLTGRVYFALDSWGQGTLVTVSSASVAAPSVFIFPPSDEQLKSGTASVVCLLNNFYPREAKVQWKVDNALQSGNSQESVTEQDSKDSTYSLSSTLTLSKADYEKHKVYACEVTHQGLSSPVTKSFNRGEC
# light 2: not shown
# notes: 1+1 CrossMAb Vh-VL, knobs into holes, IgG1 PGLALA
# B2: PD1/LAG3 0799 (bispecific antibody, human IgG1, kappa, L234A L235A)
# heavy 1: not shown
# heavy 2: EVQLVESGGGLVQPGGSLRLACAASGFTFSDYAMSWVRQAPGKGLEWVSGIDNSGYYTYYTDSVKGRFTISRDDVKNTLYLQMNSLRAEDTAVYLCTKTHSGLIVNDAFDIWGQGTMVTVSSASTKGPSVFPLAPSSKSTSGGTAALGCLVEDYFPEPVTVSWNSGALTSGVHTFPAVLQSSGLYSLSSVVTVPSSSLGTQTYICNVNHKPSNTKVDEKVEPKSCDKTHTCPPCPAPEAAGGPSVFLFPPKPKDTLMISRTPEVTCVVVDVSHEDPEVKFNWYVDGVEVHNAKTKPREEQYNSTYRVVSVLTVLHQDWLNGKEYKCKVSNKALGAPIEKTISKAKGQPREPQVCTLPPSRDELTKNQVSLSCAVKGFYPSDIAVEWESNGQPENNYKTTPPVLDSDGSFFLVSKLTVDKSRWQQGNVFSCSVMHEALHNHYTQKSLSLSPGK
# light 1: B1 light 1
# light 2: not shown
# notes: as for B1
# How the values were obtained:
# biotinylated-Lag3 = biological target: T1, biotinylated-Lag3 (UniProt P18627 23-450, limits assumed, biotinylated); experiment: ELISA, inhibition of biotinylated-Lag3 binding to MHC-II on A375 cells (competitor MHC-II)
# T1 construct: Probably a human LAG3 ECD construct; also called Lag3 (MHCII/ELISA)
# T1 sequence (looked up): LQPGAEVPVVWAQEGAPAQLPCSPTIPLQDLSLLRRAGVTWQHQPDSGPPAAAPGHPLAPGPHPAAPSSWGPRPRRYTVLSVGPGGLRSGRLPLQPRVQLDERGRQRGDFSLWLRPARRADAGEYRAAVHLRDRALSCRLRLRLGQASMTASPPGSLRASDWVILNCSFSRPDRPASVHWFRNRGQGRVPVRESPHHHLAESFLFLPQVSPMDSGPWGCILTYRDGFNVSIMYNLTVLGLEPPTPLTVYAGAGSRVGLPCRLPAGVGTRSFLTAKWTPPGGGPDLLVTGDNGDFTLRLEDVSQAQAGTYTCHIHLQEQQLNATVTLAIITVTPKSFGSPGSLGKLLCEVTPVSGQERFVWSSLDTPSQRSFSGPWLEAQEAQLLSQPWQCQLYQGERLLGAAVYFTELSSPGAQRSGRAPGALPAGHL
# [1] = biological target: T2, LAG3 on PD1+LAG3+ human U2OS cells (Homo sapiens (Human), UniProt P18627 23-525); experiment: cellular PD1/LAG3 dimerization assay, 7500 PD1+LAG3+ U2OS cells a well, 20 h at 37 °C, chemoluminescence; the signal needs PD1 and LAG3 bound at once
# T2 construct: also called cellular LAG3 (dimerization assay); not shown: subunit of the reporter enzyme fused to the cytosolic C-terminus
# T2 sequence: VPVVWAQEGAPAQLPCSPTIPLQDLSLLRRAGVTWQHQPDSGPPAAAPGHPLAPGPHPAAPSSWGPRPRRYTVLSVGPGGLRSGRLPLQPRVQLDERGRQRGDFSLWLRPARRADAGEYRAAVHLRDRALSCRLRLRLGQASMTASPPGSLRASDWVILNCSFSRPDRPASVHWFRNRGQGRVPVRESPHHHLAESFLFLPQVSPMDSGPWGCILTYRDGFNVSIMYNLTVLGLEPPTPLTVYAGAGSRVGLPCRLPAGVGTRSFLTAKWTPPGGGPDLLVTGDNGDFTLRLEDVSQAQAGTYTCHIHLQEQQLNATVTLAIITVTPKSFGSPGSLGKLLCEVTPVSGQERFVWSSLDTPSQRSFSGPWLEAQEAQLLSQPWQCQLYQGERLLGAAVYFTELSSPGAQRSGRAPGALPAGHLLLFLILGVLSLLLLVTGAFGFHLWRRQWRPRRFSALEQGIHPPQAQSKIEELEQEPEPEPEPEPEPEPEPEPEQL
# Procedure: (§1) Next, assay plates were equilibrated to room temperature and a substrate/buffer mix (PathHunterFlash detection reagent, Discoverx) was added and again incubated for 4h. For measuring chemoluminescence induced upon simultaneous binding and dimerization a SpectraMax L plate reader (Molecular Devices) was used.
# [2] = biological target: PD1 on PD1+LAG3+ human U2OS cells (UniProt Q15116 25-288); experiment: as above
# Chain of PD1 on PD1+LAG3+ human U2OS cells (Q15116 25-288): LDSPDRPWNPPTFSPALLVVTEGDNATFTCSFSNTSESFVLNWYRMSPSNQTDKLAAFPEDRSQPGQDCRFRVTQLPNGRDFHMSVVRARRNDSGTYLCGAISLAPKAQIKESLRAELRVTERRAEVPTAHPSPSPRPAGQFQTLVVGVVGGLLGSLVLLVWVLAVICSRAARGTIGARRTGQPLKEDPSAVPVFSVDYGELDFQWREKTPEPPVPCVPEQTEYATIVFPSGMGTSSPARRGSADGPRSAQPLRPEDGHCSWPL
# Procedure: as §1
# [3] = biological target: T3, full-length human PD1 on cells (human, UniProt Q15116 25-288); experiment: cell ELISA on CHO-K1 cells expressing full-length human PD1 (rel. EC50)
# T3 construct: also called CHO-PD1
# T3 sequence (Q15116 25-288 limits assumed): as the sequence (Q15116 25-288) above
# In short: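 Cells bound by test antibody were fixed with 0.05% glutaraldehyde for 10 min at RT, then detected with POD-conjugated anti-human H+L or anti-mouse secondary antibody for 1 h at RT. TMB development ran to OD 1.0-2.0, read at 370/492 nm.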
# [4] = biological target: T4, LAG3 on cells (recombinant CHO cells expressing Lag3) (human, UniProt P18627 29-525); experiment: cell-based or functional assay
# T4 sequence: T2 sequence
# [5] = biological target: T3, full-length human PD1 on cells; experiment: cell-based or functional assay
IC50 (biotinylated-Lag3) [nM],EC50 (read off the curve) [1] [nM],EC50 (read off the curve) [2] [nM],EC50 [3] [nM],"EC50 [nM], PD-1 & LAG-3 combo reporter assay (NFAT luciferase) [4] [nM]","EC50 [nM], PD-1 & LAG-3 combo reporter assay (NFAT luciferase) [5] [nM]",Binder
1.11,~0.05,~0.05,0.1,3.1,3.1,B1
0.72,,,0.07,,,B2
